Source: article PMC3851687 (2013)

Legend:
[1] = biological target: T1, humanized dPHD-HD1 (Pygo PHD F773W in complex with Lgs HD1) (Drosophila, UniProt Q9V9W8 747-804; Q961D9 321-353, F773W); experiment: ITC; linked PHD-HD1 complex (uncleaved)
T1 sequence 1: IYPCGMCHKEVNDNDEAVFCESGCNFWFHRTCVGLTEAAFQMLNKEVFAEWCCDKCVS
T1 sequence 2: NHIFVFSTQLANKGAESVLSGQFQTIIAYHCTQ

[2] = biological target: T1, humanized dPHD-HD1 (Pygo PHD F773W in …); experiment: ITC; linked PHD-HD1 complex (uncleaved linker)

- Kd [1]: 7.5 µM
- Kd [2]: 7.5 µM
B1: H3K4me2 15-mer (histone H3 tail peptide dimethylated at lysine 4) (peptide)
chain: ARTKQTARKSTGGKA
modifications: dimethyl-lysine at K4 (K4me2)
